From paper PMC12977500, “Mechanistic insights into SteAB regulation of cell wall hydrolase RipA in Mycobacterium tuberculosis” (mBio, 2026) come the findings set out here.

For data set [1], the target named is T1, MtSteB△TM (soluble M. tuberculosis SteB devoid of its TM domain, residues 38–314) (Mycobacterium tuberculosis, UniProt P9WJ83 38-314).
T1 construct: Homodimer in both crystal structures; also called MctB; Rv1698; not shown: His6, N-terminal, cleaved; SUMO, N-terminal, cleaved
Description: BLI; biotinylated MtRipACC immobilised on streptavidin biosensors; Octet-Red384, 25°C; 25 mM HEPES pH 7.5, 150 mM NaCl, 5% glycerol, 1 mg/mL BSA, 0.05% Tween 20; MtSteB 200–3.125 μM or MtRipACAT 80–1.25 μM; steady-state signal, one-site binding model; apparent Kd. The settings on record: both partners purified. In general terms: Biolayer interferometry detects binding as a change in optical thickness at a sensor tip.

Data set [2] deals with the molecule itself. In words: SEC-SLS; SEC with triple detection (UV, refractometer, SLS 7° and 90°, viscometer), Superdex 75 Increase 10/300 GL, 25 mM Hepes pH 7.5, 150 mM NaCl, 20°C; sample 1–5 mg/mL.

T1 sequence (P9WJ83 38-314): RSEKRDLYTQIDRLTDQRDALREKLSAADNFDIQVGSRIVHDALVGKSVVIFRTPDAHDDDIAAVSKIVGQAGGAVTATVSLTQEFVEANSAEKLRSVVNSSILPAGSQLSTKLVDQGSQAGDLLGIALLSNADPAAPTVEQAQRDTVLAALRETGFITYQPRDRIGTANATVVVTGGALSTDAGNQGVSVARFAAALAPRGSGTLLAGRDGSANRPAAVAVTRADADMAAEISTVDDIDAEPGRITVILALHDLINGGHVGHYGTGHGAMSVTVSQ

B1: MtRipACC (coiled-coil domain of M. tuberculosis RipA, residues 40–240) (domain or fragment)
chain: DPQTDTIAALIADVAKANQRLQDLSDEVQAEQESVNKAMVDVETARDNAAAAEDDLEVSQRAVKDANAAIAAAQHRFDTFAAATYMNGPSVSYLSASSPDEIIATVTAAKTLSASSQAVMANLQRARTERVNTESAARLAKQKADKAAADAKASQDAAVAALTETRRKFDEQREEVQRLAAERDAAQARLQAARLVAWSSE
modifications: biotin (EZ-Link NHS-PEG4-Biotin, 20 molar excess) in the BLI assays only
notes: Biotinylated and immobilised on streptavidin sensors for BLI; not biotinylated in the crystal of the complex; also called RipA coiled-coil domain; CC domain of RipA; not shown: His6, N-terminal, cleaved; SUMO, N-terminal, cleaved
On to B1, for which the Kd in data set [1] amounted to 42.6 ± 4.4 µM.

B2: MtSteA△TM (truncated soluble construct of M. tuberculosis SteA, residues 12–344) (domain or fragment)
chain: SRPGLIGIARVDRNIDRLLRRVCPGDIVVLDVLDLDRITADALVEAEIAAVVNASSSVSGRYPNLGPEVLVTNGVTLIDETGPEIFKKVKDGAKVRLYEGGVYAGDRRLIRGTERTDHDIADLMREAKSGLVAHLEAFAGNTIEFIRSESPLLIDGIGIPDVDVDLRRRHVVIVADEPSGPDDLKSLKPFIKEYQPVLVGVGTGADVLRKAGYRPQLIVGDPDQISTEVLKCGAQVVLPADADGHAPGLERIQDLGVGAMTFPAAGSATDLALLLADHHGAALLVTAGHAANIETFFDRTRVQSNPSTFLTRLRVGEKLVDAKAVATLYRNHI
notes: Dimer in solution and in the crystal; also called Rv1697; not shown: His6, N-terminal, cleaved; SUMO, N-terminal, cleaved
The term stoichiometry N denotes a count of units in the complex or per binding partner. Take B2: the “stoichiometry N” value in data set [2] was found to be 2.
